Consider two molecules from publication PMC5461540, “MOB1 Mediated Phospho-recognition in the Core Mammalian Hippo Pathway * ^([image sbox.jpg])” (Molecular & Cellular Proteomics : MCP, 2017).

Where no end group is shown, it is not given here.

The experiment concerns the target T1, MOB1A wild-type (human, UniProt Q9H8S9-1 2-216).
T1 construct: also called MOB1A WT; full-length nonphosphorylated human MOB1A; source: E. coli BL21 (DE3) CodonPlus RIL, purified (glutathione-Sepharose, TEV cleavage, subtractive IMAC, SEC); not shown: His6, N-terminal, cleaved; GST, N-terminal, cleaved
T1 sequence (looked up): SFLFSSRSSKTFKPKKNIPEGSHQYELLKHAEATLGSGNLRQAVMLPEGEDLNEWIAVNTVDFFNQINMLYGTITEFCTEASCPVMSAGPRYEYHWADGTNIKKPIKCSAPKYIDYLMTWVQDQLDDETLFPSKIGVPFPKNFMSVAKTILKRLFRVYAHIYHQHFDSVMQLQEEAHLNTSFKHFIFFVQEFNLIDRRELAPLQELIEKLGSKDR
Put plainly: crystal structure; MOB1A mixed with MST1 phosphopeptide at 1:1.5 mole ratio; hanging drops, 0.1 M MES pH 6.0, 0.2 M LiCl, 20% PEG 6000. The settings on record: both partners purified.

B1: MST1 pT353 phosphopeptide (15-mer, crystallization) (peptide)
peptide: VASTMTDGANTMIEH
modifications: also: phosphothreonine at 353 (place in peptide not given here)
notes: MST1 (STK4), human, 15-mer encompassing pT353; also called MST1-pT353 peptide; source: synthetic peptide, bought: Biomatik
For the molecule B1, the binding result was “binds”.

B2: MST1 pT367 phosphopeptide (15-mer, crystallization) (peptide)
peptide: DDTLPSQLGTMVINA
modifications: also: phosphothreonine at 367 (place in peptide not given here)
notes: MST1 (STK4), human, 15-mer encompassing pT367; also called MST1-pT367 peptide; source: synthetic peptide, bought: Biomatik
Take B2: the binding result is reported as “binds”.
